The assay addresses ubiquitin conjugates (MEFs). The assay is described as follows: UBQLN2 IP and western blot quantification (primary MEFs). The conditions noted are these: n = 3; read off a plot. In general terms: Immunoblotting shows a protein as a band on a membrane.

For the substance “UBQLN2 (mouse, endogenous, wild type) (from UniProt Q9QZM0) mP520T”, the ratio to parent was found to be 1.4.

Values taken from publication PMC5003816.
